Data taken from US20180155425A1 (ZONHON BIOPHARMA INSTITUTE, published 2018).

B1: ZHB BsAb-1 (bispecific antibody)
chain: EVQLVESGAGVKQPGGTLRLTCTASGFSLTTYGVHWVRQAPGKGLEWVGVIWGDGRTDYDAAFMSRVTISKDTSKSTVYLQMNSLRAEDTAVYYCMRNRHDWFDYWGQGTTVTVSSGGGGSGGGGSGGGGSDILLTQSPSSLSATPGERATITCRASQGIRNNLNWYQQKPGQAPRLLIYYSSNLQSGVPSRFSGSGSGTDFTLTISRLQPEDVAAYYCQQSIKLPFTFGSGTKVEIKSGGGGSDVQLVQSGAEVKKPGASVKVSCKASGYTFTRYTMHWVRQAPGQGLEWIGYINPSRGYTNYADSVKGRFTITTDKSTSTAYMELSSLRSEDTATYYCARYYDDHYCLDYWGQGTTVTVSSGEGTSTGSGGSGGSGGADDIVLTQSPATLSLSPGERATLSCRASQSVSYMNWYQQKPGKAPKRWIYDTSKVASGVPARFSGSGSGTDYSLTINSLEAEDAATYYCQQWSSNPLTFGGGTKVEIK
notes: detection on cells used an anti-His-tag antibody; also called anti-CD26×anti-CD3 bispecific antibody
B2: anti-CD26-scFv (scFv)
scFv: EVQLVESGAGVKQPGGTLRLTCTASGFSLTTYGVHWVRQAPGKGLEWVGVIWGDGRTDYDAAFMSRVTISKDTSKSTVYLQMNSLRAEDTAVYYCMRNRHDWFDYWGQGTTVTVSSGGGGSGGGGSGGGGSDILLTQSPSSLSATPGERATITCRASQGIRNNLNWYQQKPGQAPRLLIYYSSNLQSGVPSRFSGSGSGTDFTLTISRLQPEDVAAYYCQQSIKLPFTFGSGTKVEIKHHHHHH
notes: Expressed in Pichia pastoris; also called anti-CD26 single-chain antibody; parent single-chain antibody
B3: ZHB BsAb-4 (bispecific antibody)
chain: DVQLVQSGAEVKKPGASVKVSCKASGYTFTRYTMHWVRQAPGQGLEWIGYINPSRGYTNYADSVKGRFTITTDKSTSTAYMELSSLRSEDTATYYCARYYDDHYCLDYWGQGTTVTVSSGEGTSTGSGGSGGSGGADDIVLTQSPATLSLSPGERATLSCRASQSVSYMNWYQQKPGKAPKRWIYDTSKVASGVPARFSGSGSGTDYSLTINSLEAEDAATYYCQQWSSNPLTFGGGTKVEIKSGGGGSDILLTQSPSSLSATPGERATITCRASQGIRNNLNWYQQKPGQAPRLLIYYSSNLQSGVPSRFSGSGSGTDFTLTISRLQPEDVAAYYCQQSIKLPFTFGSGTKVEIKGGGGSGGGGSGGGGSEVQLVESGAGVKQPGGTLRLTCTASGFSLTTYGVHWVRQAPGKGLEWVGVIWGDGRTDYDAAFMSRVTISKDTSKSTVYLQMNSLRAEDTAVYYCMRNRHDWFDYWGQGTTVTVSS
notes: Single-chain tandem scFv; detection on cells used an anti-His-tag antibody; also called anti-CD26×anti-CD3 bispecific antibody
B4: ZHB BsAb-2 (bispecific antibody)
chain: DILLTQSPSSLSATPGERATITCRASQGIRNNLNWYQQKPGQAPRLLIYYSSNLQSGVPSRFSGSGSGTDFTLTISRLQPEDVAAYYCQQSIKLPFTFGSGTKVEIKGGGGSGGGGSGGGGSEVQLVESGAGVKQPGGTLRLTCTASGFSLTTYGVHWVRQAPGKGLEWVGVIWGDGRTDYDAAFMSRVTISKDTSKSTVYLQMNSLRAEDTAVYYCMRNRHDWFDYWGQGTTVTVSSGGGGSDVQLVQSGAEVKKPGASVKVSCKASGYTFTRYTMHWVRQAPGQGLEWIGYINPSRGYTNYADSVKGRFTITTDKSTSTAYMELSSLRSEDTATYYCARYYDDHYCLDYWGQGTTVTVSSGEGTSTGSGGSGGSGGADDIVLTQSPATLSLSPGERATLSCRASQSVSYMNWYQQKPGKAPKRWIYDTSKVASGVPARFSGSGSGTDYSLTINSLEAEDAATYYCQQWSSNPLTFGGGTKVEIK
notes: as for B3
B5: ZHB BsAb-3 (bispecific antibody)
chain: DVQLVQSGAEVKKPGASVKVSCKASGYTFTRYTMHWVRQAPGQGLEWIGYINPSRGYTNYADSVKGRFTITTDKSTSTAYMELSSLRSEDTATYYCARYYDDHYCLDYWGQGTTVTVSSGEGTSTGSGGSGGSGGADDIVLTQSPATLSLSPGERATLSCRASQSVSYMNWYQQKPGKAPKRWIYDTSKVASGVPARFSGSGSGTDYSLTINSLEAEDAATYYCQQWSSNPLTFGGGTKVEIKSGGGGSEVQLVESGAGVKQPGGTLRLTCTASGFSLTTYGVHWVRQAPGKGLEWVGVIWGDGRTDYDAAFMSRVTISKDTSKSTVYLQMNSLRAEDTAVYYCMRNRHDWFDYWGQGTTVTVSSGGGGSGGGGSGGGGSDILLTQSPSSLSATPGERATITCRASQGIRNNLNWYQQKPGQAPRLLIYYSSNLQSGVPSRFSGSGSGTDFTLTISRLQPEDVAAYYCQQSIKLPFTFGSGTKVEIK
notes: as for B3

Target: T1, human CD26 on the surfaces of tumor cells (human, UniProt P27487 1-766)
Assay: cell-based or functional assay

Binder | Lysis (%) of 786-0 cells by PBMC, antibody at 10 ng/mL
B1 | 15.9%
B2 | 4.1%
B3 | 25.5%
B4 | 27.4%
B5 | 4.3%

Target: T1, human CD26 on the surfaces of tumor …
Assay: cell-based or functional assay
Remark: another data set of the same source

Binder | Lysis rate (%) of COLO205 cells by PBMC, antibody at 10 ng/mL | Lysis rate (%) of Caki-1 cells by PBMC, antibody at 10 ng/mL | Lysis rate (%) of NCI-H2452 cells by PBMC, antibody at 10 ng/mL | Lysis rate (%) of PC-3 cells by PBMC, antibody at 10 ng/mL
B1 | 1.7% | 0.3% | 0.2% | 45.4%
B3 | 5.4% | 0.9% | 0.5% | 53.1%
B4 | 17% | 26.5% | 32.3% | 39.6%
B5 | 5.3% | 0.8% | 0.7% | 1.7%

Target: T1, human CD26 on the surfaces of tumor …
Assay: flow cytometry on Caki-1 cells, anti-His-tag-Alexa Fluor 488 detection

Binder | Binding rate
B1 | 1.1%
B3 | 1.1%
B4 | 49.9%
B5 | 1.2%

Target: T1, human CD26 on the surfaces of tumor …
Assay: flow cytometry on NCI-H2452 cells, anti-His-tag-Alexa Fluor 488 detection
Protocol: (§1) Test method: 786-0 and NCI-H2452 cells in the logarithmic growth phase were trypsinized. The cells were harvested by centrifugation at 1000 rpm for 5 min, and washed twice with PBS buffer. One portion of 1.0×10⁶ cells was re-suspended in 250 μL PBS butler, and BsAb1, BsAb2, BsAb3, and BsAb4 were respectively added to give a final concentration of […] and incubated at room temperature for 1 hr. After incubation, the cells were washed twice with PBS buffer, and then 250 μL of Anti--His-tag-Alexa Fluor 488 antibody that was 1:2000 diluted was added and incubated at room temperature for 1 hr. After incubation, the cells were washed thrice with PBS, re-suspended in 300 μL PBS buffer, and detected by flow cytometer.

Binder | Binding rate
B1 | 1.1%
B3 | 1.4%
B4 | 71.8%
B5 | 0.7%

Target: T1, human CD26 on the surfaces of tumor …
Assay: cell-based or functional assay
Remark: another data set of the same source

Binder | IC50 of T cell-mediated killing of 786-0 cells
B3 | 3.1 ng/mL
B4 | 1.39 ng/mL

Target: T2, human CD3 on the surfaces of Jurkat cells / T cells (human, UniProt P07766 23-207; P09693 23-182; P04234 22-171)
T2 construct: whole, on cells; CD3 is endogenous on Jurkat cells and on enriched human T cells; also called CD3 molecules on the surfaces of Jurkat cells
Assay: flow cytometry on Jurkat (CD3+) cells, antibody at 10 µg/mL, anti-His-tag-Alexa Fluor 488 detection
Protocol: Test method: Jurkat cells in the logarithmic growth phase were harvested by centrifugation at 1000 rpm for 5 min, and washed twice with PBS buffer. One portion of 1.0×10⁶ cells was re-suspended in 250 μL PBS buffer, and BsAb1, BsAb2, BsAb3, and BsAb4 were respectively added to give a final concentration of 10 μg/mL and incubated at room temperature for 1 hour. After incubation, the cells were washed twice with PBS, and then 250 μL of Anti-His-tag-Alexa Fluor 488 antibody that was 1:2000 diluted was added and incubated at room temperature for 1 hour. After incubation, the cells were washed thrice with PBS buffer, re-suspended in 300 μL PBS, and detected by flow cytometer.

Binder | binding rate to Jurkat cells
B1 | 0.1%
B3 | 56.5%
B4 | 92%
B5 | 0.2%

Target: T1, human CD26 on the surfaces of tumor …
Assay: flow cytometry on COLO205 cells, anti-His-tag-Alexa Fluor 488 detection

Binder | Binding rate
B1 | 0.1%
B3 | 0.2%
B4 | 14%
B5 | 0.4%

Target: T1, human CD26 on the surfaces of tumor …
Assay: cell-based or functional assay
Remark: another data set of the same source

Binder | Lysis rate (%) of 786-0 cells by T cells, antibody at 10^2 pg/mL | Lysis rate (%) of 786-0 cells by T cells, antibody at 10^3 pg/mL | Lysis rate (%) of 786-0 cells by T cells, antibody at 10^4 pg/mL | Lysis rate (%) of 786-0 cells by T cells, antibody at 10^5 pg/mL
B2 | 10.8% | 9.6% | 10.9% | 7.5%
B3 | 24.3% | 38.8% | 64.8% | 75.4%
B4 | 21.8% | 59.2% | 69.6% | 76.3%

Target: T3, CD26 protein (UniProt P27487 39-766, limits assumed)
T3 construct: Soluble CD26 protein in the biolayer interferometry assay on AR2G sensors
Assay: BLI, Fortebio Qke, AR2G amine reactive biosensor
Text: Test method: The affinities of the bispecific antibodies to CD26 protein were detected by using the Molecular Interaction Instrument Fortebio Qke, following the instruction of operation of immersive readable Amine Reactive 2nd Generation Biosensor (Fortebio, AR2G).

Binder | Kd
B1 | 9.29 nM
B2 | 1 nM
B3 | 1.97 nM
B4 | 3.44 nM
B5 | 10 nM

Target: T1, human CD26 on the surfaces of tumor …
Assay: flow cytometry on PC-3 cells, anti-His-tag-Alexa Fluor 488 detection

Binder | Binding rate
B1 | 1.2%
B3 | 62.9%
B4 | 42.8%
B5 | 0.1%

Target: T1, human CD26 on the surfaces of tumor …
Assay: flow cytometry on 786-0 cells, anti-His-tag-Alexa Fluor 488 detection
Protocol: as §1

Binder | Binding rate
B1 | 41.1%
B3 | 98%
B4 | 99.6%
B5 | 9.4%
